The source of these data is patent US20260120837A1, “METHODS OF DOSING THERAPEUTIC AGENTS” (Fusion Pharmaceuticals Inc., priority 2022, published 2026).

Where two headings read alike, the source gives them in different places.

The nature of series [1]: PK parameters for rats and Ctrans, two-compartment model with nonlinear only clearance pathway (phenytoin). Particulars: rats. The series is classed as in vivo. On the procedure:
Its PK in rats is described by a two-compartment model with nonlinear only clearance described by M-M equation. For this kind of PK model, […] is determined according to Equation (3): PK parameters listed in Table 2, […] and KM, were obtained based on the protocols disclosed in Della Paschoa et al., 1998, with modification to be consistent with the current model description provided herein.

The conditions of series [2]: rats; cited from earlier work.
A short description of series [3]: PK parameters and Ctrans, two-compartment model with nonlinear M-M clearance only (cetuximab, alemtuzumab). The series is classed as in vivo, human. To be noted: calculated by Equation (3). The method, then:
For this kind of PK model, Ctrans is determined according to Equation (3): […]
PK parameters listed in Table 1, i.e., Vc, Vp, Q, VM and KM, were obtained based on the protocols disclosed in Dirks et al., 2008 and Mould et al., 2007, with modification to be consistent with the current model description provided herein.

For series [4] the following is noted: cited from earlier work.
For series [5] the following is noted: cited from earlier work; for Kdeg: degradation of free target; for Cl / Q / Vc / Vp: in vivo; for Kint: internalization of drug-target complex; for Ksyn: target synthesis.
A short description of series [6]: PK (TMDD) model parameters and Ctrans, two-compartment TMDD model, QSS approximation. To be noted: for Ctrans: Equation (13); for Ttot = Ksyn/Kdeg: total target concentration. The series is classed as in vivo, humans. On the procedure:
For this kind of PK model, Ctrans is determined according to Equation (2), specified by Equation (13).
where VM and KM are calculated from TMDD model parameters according to Equations (11) and (12).
PK parameters listed in Table S were obtained based on the protocols disclosed in Stein & Peletier, 2018 and Rodriguez-Vera et al., 2015, with modification to be consistent with the current model description listed in Equations (7A)-(7D).

For series [7] the following is noted: cited from earlier work; for KM / Q / VM / Vc / Vp: in vivo; for Cl: linear clearance.
A short description of series [8]: PK parameters and Ctrans, two-compartment model with mixed linear and nonlinear M-M clearance pathways (four antibodies). Particulars: calculated by Equation (2), sqrt(KM×VM/Cl). The series is classed as in vivo, human. The method, then:
For this kind of PK model, Ctrans is determined according to Equation (2): […]
PK parameters listed in Table 3, i.e., Vc, Cl, Vp, Q, VM and KM, were obtained based on the protocols disclosed in Frey et al., 2010; Kloft et al., 2004; Ma et al., 2009; and Okamoto et al., 2021, with modification to be consistent with the current model description provided here.

Series [9] can be described thus: Minimal dose to keep plasma concentration Cp(t) above Ctrans for Tdur, two-compartment model solved with deSolve (tocilizumab). The arrangement: species or system humans. On the procedure: This example requires that Ttrans for the desired therapeutic dose be greater than the pre-determined duration time point post-administration, which is denoted herein as Tdur.
PK model parameters for tocilizumab such as Vc, Cl, Vp, Q, KM and VM are provided in Example 3. Ctrans is determined to be 8.22 μg/mL or 8.22 mg/L; Tur is pre-determined as 28 days, which is equal to or less than Ttrans.

The conditions of series [10]: in vivo; cited from earlier work.
Series [11] can be described thus: PK model parameters, Ctrans and therapeutic dose to reach Ctrans at Ttrans, one-compartment model with mixed linear and nonlinear clearance (evolocumab). It is filed as in vivo, humans. The method, then: Ttrans to reach the transitional concentration Ctrans for any dose level Cmax is determined according to Equation(S). When Ttrans and Ctrans are known, Cmax and the therapeutic dose can be determined as follows.
According to Equation (2), Ctrans is determined to be 115.18 nM or 17.28 mg/L assuming the molecular weight of 150 kDa or 150 kg/mol for a typical antibody. Ttrans is pre-determined to be 28 days. Ttrans and Ctrans can be used to determine Cmax based on Equation(S). Cmax can be obtained from Equation (5) via any root solver as provided in MATLAB™ and RStudio.
PK parameters listed in Table 6 were obtained based on the protocols disclosed in Kuchimanchi et al., 2018, with modification to be consistent with the current model description listed in Equations (2) and (4).

Turning to `O=C1NC(=O)C(c2ccccc2)(c2ccccc2)N1` [Phenytoin], in series [1], the “Q = K12 × Vc” value was determined as 79.98 mL/min and the “Vp = Q/K21” value was 1333 mL. Further, in series [1] (calculated by Equation (3)), the Ctrans is 5.9 µg/mL. In series [2], the K12 was 0.197 min⁻¹, the K21 was 0.060 min⁻¹, the KM was 5.9 µg/mL and the VM is 272 µg/min. The Vc in series [2] is given as 406 mL.

Regarding “Alemtuzumab: antibody; PK described by two-compartment model with nonlinear only clearance”, the Ctrans in series [3] is 338 (μg/L). In series [4] (M-M equation coefficient), the KM is recorded as 338 (μg/L) and the VM is reported as 1020 (μg/hour). For the same molecule, the Vc in series [4] (central compartment distribution volume) is 11.3 (L). The Q in series [4] (exchange rate between compartments) is on record as 1.05 (L/hour). Moreover, the Vp in [4] (peripheral compartment distribution volume) is on record as 41.5 (L).

What is called Km is the concentration of substrate that gives half-maximal velocity. On to “Mavrilimumab: antibody; TMDD model under the QSS condition”, for which, in series [5], the Kdeg is recorded as 2.2 (/day), the Cl is reported as 0.3 (L/day) ^, the Q is 1.7 (L/day) ^ and the Vc is given as 2.8 L. In series [5], the Vp is given as 5.6 L, the Kint is given as 2.2 (/day) and the Ksyn is given as 2.4 (nM/day)^. Also, the Koff in [5] (drug-target binding reverse rate constant) is recorded as 10 (/day). Moreover, in [6], the Ctrans is recorded as 4.96 (nM) ^ and the “Ttot = Ksyn/Kdeg” value is 1.09 (nM) ^. Besides, the “VM = KsynVc” value in series [6] (in vivo) is on record as 6.72 (nmol/Day). Also, in [6] (in vivo, read-out: KM = KQSS), the Km was determined as 1.1 nM. The “KQSS = (Kint + Koff)/Kon” value in series [6] (quasi-steady-state constant) is 1.1 (nM) ^.

“Nimotuzumab: antibody of Table 5; TMDD model under QSS condition (text b119 says efalizumab)”: in series [5], the Kdeg is 5.5 (/hour), the Cl is recorded as 0.000703 (L/hour) ^, the Q is given as 0.00322 (L/hour) and the Vc is 1.43 L. In series [5], the Vp is 18.5 L, the Kint is recorded as 0.148 (/hour) and the Ksyn is 1.43 (μg/mL/hour). Further, the “KQSS = (Kint + Koff)/Kon” value in series [5] (quasi-steady-state constant) was 6.96 (mg/L). For the same molecule, in series [6], the Ctrans is listed as 142.3 (μg/mL) and the “Ttot = Ksyn/Kdeg” value is listed as 0.26 (μg/mL). For the same molecule, in series [6] (in vivo), the “KM = KQSS” value is given as 6.96 (mg/L) and the “VM = KsynVc” value is given as 2.045 (mg/hour).

Turning to “Panitumumab: antibody; two-compartment model with mixed linear and nonlinear clearance”, in series [7], the KM is 0.401 µg/mL, the Q is given as 0.389 L/day, the VM is given as 10.6 mg/day and the Vc is 3.66 L. Besides, in series [7], the Vp is listed as 2.58 L and the Cl was 0.269 L/day. Further, the Ctrans in [8] is 3.98 µg/mL.

For the molecule “Sibrotuzumab: antibody; two-compartment model with mixed linear and nonlinear clearance”, in series [7], the KM is 0.219 µg/mL, the Q was 0.902 L/day, the VM was 0.811 mg/day and the Vc was 4.13 L. Further, in series [7], the Vp was 3.19 L and the Cl is reported as 0.530 L/day. For the same molecule, the Ctrans in series [8] is 0.579 µg/mL.

For “Tocilizumab: antibody; two-compartment model with mixed linear and nonlinear clearance”, in [7], the KM is 2.7 µg/mL, the Q was 0.2 L/day, the VM is 7.5 mg/day and the Vc is reported as 3.5 L. In series [7], the Vp was 2.9 L and the Cl is 0.3 L/day. Moreover, the Ctrans in [8] was 8.22 µg/mL. In series [9], this molecule came in with a Ctrans of 8.22 mg/L.

In the case of “Vedolizumab: antibody; two-compartment model with mixed linear and nonlinear clearance”, in [7], the KM is 0.851 µg/mL, the Q is reported as 0.161 L/day, the VM is on record as 0.238 mg/day and the Vc is 3.16 L. Further, in series [7], the Vp was 1.84 L and the Cl is 1.10 L/day. Moreover, the Ctrans in [8] was 0.429 µg/mL.

B1: Evolocumab: antibody; one-compartment model with mixed linear and nonlinear clearance pathways (antibody, chains of the INN, looked up, V domains shown)
VH: EVQLVQSGAEVKKPGASVKVSCKASGYTLTSYGISWVRQAPGQGLEWMGWVSFYNGNTNYAQKLQGRGTMTTDPSTSTAYMELRSLRSDDTAVYYCARGYGMDVWGQGTTVTVSS
VL: ESALTQPASVSGSPGQSITISCTGTSSDVGGYNSVSWYQQHPGKAPKLMIYEVSNRPSGVSNRFSGSKSGNTASLTISGLQAEDEADYYCNSYTSTSMVFGGGTKLTVL
Regarding B1, in series [10], the Cl is 0.105 L/day, the Km is 27.3 nM, the VM was 51.02 nmol/day and the Vc was 5.18 L. The molecule also displayed a Ctrans in series [11] (Equation (2)) of 115.18 nM. Moreover, the Ctrans in [11] (assuming molecular weight of 150 kDa) came to 17.28 mg/L.
